Tests used:
[1] = target: T1, murine oxytocin receptor (mouse, UniProt P97926 1-388); assay: cell-based or functional assay
T1 sequence: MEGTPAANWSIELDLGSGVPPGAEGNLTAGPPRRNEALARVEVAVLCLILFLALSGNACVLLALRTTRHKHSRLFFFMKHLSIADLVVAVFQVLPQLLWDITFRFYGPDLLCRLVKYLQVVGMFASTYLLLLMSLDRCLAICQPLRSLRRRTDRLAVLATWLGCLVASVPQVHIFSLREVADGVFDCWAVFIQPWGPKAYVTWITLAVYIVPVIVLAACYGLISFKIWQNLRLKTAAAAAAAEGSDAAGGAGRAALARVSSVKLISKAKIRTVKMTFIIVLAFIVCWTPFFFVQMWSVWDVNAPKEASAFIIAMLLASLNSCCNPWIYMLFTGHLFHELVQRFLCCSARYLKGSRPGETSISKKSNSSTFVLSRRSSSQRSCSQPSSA

[2] = target: T2, human oxytocin receptor (human, UniProt P30559 1-389); assay: cell-based or functional assay
T2 sequence: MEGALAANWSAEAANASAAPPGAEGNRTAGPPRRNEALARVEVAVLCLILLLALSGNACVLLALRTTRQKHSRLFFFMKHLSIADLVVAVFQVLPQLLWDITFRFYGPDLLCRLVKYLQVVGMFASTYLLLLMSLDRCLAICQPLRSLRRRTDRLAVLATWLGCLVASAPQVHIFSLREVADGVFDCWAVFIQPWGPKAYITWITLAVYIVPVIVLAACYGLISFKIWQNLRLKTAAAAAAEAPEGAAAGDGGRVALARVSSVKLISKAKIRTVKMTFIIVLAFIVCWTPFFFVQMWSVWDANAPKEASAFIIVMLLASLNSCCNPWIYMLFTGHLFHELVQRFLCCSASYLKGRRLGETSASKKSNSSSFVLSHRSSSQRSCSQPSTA

[3] = target: human vasopressin V1a receptor (human, UniProt P37288 1-418); assay: cell-based or functional assay
human vasopressin V1a receptor, sequence (P37288 whole entry): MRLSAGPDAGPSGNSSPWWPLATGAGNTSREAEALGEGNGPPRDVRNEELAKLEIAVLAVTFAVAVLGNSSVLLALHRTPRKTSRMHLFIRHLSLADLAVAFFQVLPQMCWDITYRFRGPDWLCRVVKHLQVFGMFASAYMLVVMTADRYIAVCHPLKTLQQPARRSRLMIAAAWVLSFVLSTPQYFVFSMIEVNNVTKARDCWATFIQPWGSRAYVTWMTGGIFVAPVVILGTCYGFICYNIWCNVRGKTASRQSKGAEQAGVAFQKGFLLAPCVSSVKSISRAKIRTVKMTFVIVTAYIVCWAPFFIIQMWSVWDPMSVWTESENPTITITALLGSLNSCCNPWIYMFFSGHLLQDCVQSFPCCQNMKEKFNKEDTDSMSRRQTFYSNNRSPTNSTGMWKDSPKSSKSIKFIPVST

[4] = target: murine vasopressin V2 receptor (mouse, UniProt O88721 1-371); assay: radioligand binding
murine vasopressin V2 receptor, sequence (O88721 whole entry): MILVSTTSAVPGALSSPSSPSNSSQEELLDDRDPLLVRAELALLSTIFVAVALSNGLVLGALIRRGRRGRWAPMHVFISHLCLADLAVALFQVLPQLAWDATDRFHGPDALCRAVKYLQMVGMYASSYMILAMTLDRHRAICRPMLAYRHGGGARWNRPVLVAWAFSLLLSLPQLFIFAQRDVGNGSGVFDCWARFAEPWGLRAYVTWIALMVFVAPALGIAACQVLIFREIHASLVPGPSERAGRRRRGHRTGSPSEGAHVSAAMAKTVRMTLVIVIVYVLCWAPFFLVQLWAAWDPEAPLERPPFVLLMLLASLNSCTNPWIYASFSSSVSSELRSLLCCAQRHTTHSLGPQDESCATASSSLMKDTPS

B1: [Se-Se]-OT-OH (peptide)
chain: UYIQNUPLG
modifications: selenocysteine at positions 1 and 6, joined by a diselenide bond; C-terminal acid instead of the amide
B1 was tested, and the “HTRF IP1 accumulation in transfected HEK293 cells, Emax” value [1] was 43%, the “HTRF IP1 accumulation in transfected COS-1 cells, EC50” value [2] was 38 nM and the “tissue bath, contraction amplitude of strips of pregnant human myometrium, EC50” value [2] was 5.89 nM. The “FLIPR Ca2+ mobilization, EC50” value [3] was > 10000 nM and the “Ki1 (bi-phasic binding curve)” value [4] was 0.71 nM.

Reference: PMC5892705 (Science signaling, 2017)
